Laboratory results from patent US20100098696A1 (Eli Lilly, published 2010).
Read-outs that look alike come from different tables or passages of the source.

What was measured:
[1] = target: T1, FGFR-3(IIIb) truncate D1 (25-148)-Fc (human, UniProt P22607 25-148); test: Mesoscale binding assay and BIAcore
T1 construct: range 25-148; Homodimeric Fc fusion; not shown: human Fc tag of the pGS-Fc vector
T1 sequence: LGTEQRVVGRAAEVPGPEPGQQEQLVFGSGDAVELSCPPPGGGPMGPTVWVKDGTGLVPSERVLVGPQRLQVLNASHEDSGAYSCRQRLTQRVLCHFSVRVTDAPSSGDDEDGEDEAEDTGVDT

[2] = target: T2, FGFR-3(IIIb) truncate D3 (250-372)-Fc (human, UniProt P22607-2 250-372); test: Mesoscale binding assay and BIAcore
T2 construct: range 250-372; Homodimeric Fc fusion; not shown: human Fc tag of the pGS-Fc vector
T2 sequence (looked up): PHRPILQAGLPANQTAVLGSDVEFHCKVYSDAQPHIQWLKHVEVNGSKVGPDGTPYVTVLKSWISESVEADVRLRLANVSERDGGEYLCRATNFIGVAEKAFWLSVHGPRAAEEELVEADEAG

[3] = target: T3, FGFR-3(IIIb) or (IIIc) ECD (extracellular domain) Fc tagged soluble recombinant protein (human, UniProt P22607 23-375); test: ELISA blocking assay: FGFR-3 ECD-Fc (1 µg/ml) with antibody dilutions on FGF-1 coated plates; upper end of the range
T3 construct: extracellular domain; also called recombinant human FGFR-Fc; not shown: Fc tag
T3 sequence (looked up): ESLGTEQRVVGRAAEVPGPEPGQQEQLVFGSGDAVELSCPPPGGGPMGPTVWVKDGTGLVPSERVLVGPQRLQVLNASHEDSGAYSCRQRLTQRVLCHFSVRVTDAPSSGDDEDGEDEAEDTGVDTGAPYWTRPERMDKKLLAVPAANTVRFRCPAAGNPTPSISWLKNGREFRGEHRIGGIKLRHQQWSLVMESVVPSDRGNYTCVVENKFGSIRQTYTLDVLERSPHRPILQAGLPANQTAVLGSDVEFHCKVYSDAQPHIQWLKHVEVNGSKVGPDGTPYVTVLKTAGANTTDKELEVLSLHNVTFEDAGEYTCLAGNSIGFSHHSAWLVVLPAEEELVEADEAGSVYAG
Description: (§1) Wash plates 3 times with 0.2% Tween20/PBS. […] Blocking activities lead to decreased signals.

[4] = target: T4, Human FGFR-3(IIIb) (human, UniProt P22607-2 23-377, limits assumed); test: BiaCore 3000 SPR, room temperature
T4 construct: The construct in the BiaCore experiment is not described; it is probably recombinant ECD-Fc; also called b-splice form of human FGFR-3
T4 sequence (looked up): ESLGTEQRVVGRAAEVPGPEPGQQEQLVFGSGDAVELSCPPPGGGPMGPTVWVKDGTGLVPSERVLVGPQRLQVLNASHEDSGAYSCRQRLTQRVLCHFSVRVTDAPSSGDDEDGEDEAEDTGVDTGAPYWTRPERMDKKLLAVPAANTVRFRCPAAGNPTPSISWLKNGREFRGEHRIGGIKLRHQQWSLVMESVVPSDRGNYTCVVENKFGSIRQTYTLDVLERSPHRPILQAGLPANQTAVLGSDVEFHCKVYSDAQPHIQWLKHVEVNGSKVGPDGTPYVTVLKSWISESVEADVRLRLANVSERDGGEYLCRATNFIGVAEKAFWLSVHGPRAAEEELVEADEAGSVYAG

[5] = target: T4, Human FGFR-3(IIIb); test: BiaCore 3000 SPR, room temperature; remark: listed apart in the source
[6] = target: T3, FGFR-3(IIIb) or (IIIc) ECD …; test: ELISA blocking assay: FGFR-3 ECD-Fc (1 µg/ml) with antibody dilutions on FGF-1 coated plates; lower end of the range
Description: as §1

B1: Antibody 1 (antibody, human IgG1, lambda)
heavy: not shown
light: QSVLTQPPSLSVAPGKTATFTCGGNNIGDKSVHWYRQKPGQAPVLVMYLDTERPSGIPERMSGSNFGNTATLTITRVEAEDEADYYCQVWDSGSDHVVFGGGTKLTVLGQPKAAPSVTLFPPSSEELQANKATLVCLISDFYPGAVTVAWKADSSPVKAGVETTTPSKQSNNKYAASSYLSLTPEQWKSHRSYSCQVTHEGSTVEKTVAPAECS
notes: Human IgG1 from a naive human Fab phage library; It was ruthenium-labelled in the Mesoscale assay and Alexa Fluor-labelled in the internalisation assay; also called FGFR-3 antibody antagonist
For B1, the binding result [1] was “no binding (tested: 250-0.001 nM dilution series)”, the binding result [2] was “no binding (tested: 250-0.001 nM dilution series)” and the IC50 [3] was no more than 10 nM. The Kd [4] was 1 nM, the Kd [5] was 0.72 nM and the IC50 [6] was no less than 1 nM.
